Measurements: patent publication US20240124536A1, “BASE EDITING OF TRANSTHYRETIN GENE” (Beam Therapeutics Inc., priority 2021, published 2024)
Strand notation (5' to 3'): a small letter for the sugar, then the base; units joined by * are phosphorothioate-linked, units joined directly phosphodiester-linked; [ ] holds rarer units or linkages, { } end groups; capitals alone tell only the bases. m = 2'-O-methyl; r = 2'-OH (RNA)

What was measured:
[1] = system: potential off-target candidate sites
Description: With a view towards establishing the safety of a base-editing therapy knocking down of TTR in the human liver in vivo, off-target mutagenesis analysis is assessed in primary human hepatocytes. […] The in vitro biochemical assay ONE-seq was used to generate a list of candidate off-target sites and to determine the propensity of a ribonucleoprotein comprising the ABE8.8 base editor protein and each of the three protospacer guides sequences (GA457, GA460, and GA461) to cleave oligonucleotides in a library.
For human ONE-seq libraries, the reference human genome (GRCh38, Ensembl v98, chromosomes ftp://ftp.ensembl.org/pub/release-98/fasta/homo_sapiens/dna/Homo_sapiens.GRCh38.dna.chromosome.{1-22,X,Y,MT}.fa and ftp://ftp.ensembl.org/pub/release-98/fasta/homo_sapiens/dna/Homo_sapiens.GRCh38.dna.nonchromosomal.fa), was searched for potential off-target sites with up to 6 mismatches to the protospacer sequence above, and sites with up to 4 mismatches plus up to 2 DNA or RNA bulges, using Cas-Designer v1.2 (http://www.rgenome.net/cas-designer/).
For each site, the total number of edited reads was normalized to the total number of edited reads assigned to the on-target site, and this ratio defines the ONE-seq score for the site. Sites were ranked by ONE-seq score, and those with a score equal to or larger than 0.001, were selected for validation. A score equal to or larger than 0.001 encompasses sites that have down to 1000-fold less editing activity in the biochemical assay compared to editing of the on-target site. This threshold is based on the premise that in cells, if there is 10000 on-target editing, 1/1000-fold less editing activity would translate to % 0.1% off-target editing, which falls below the lower limit of detection of editing by NGS.
(§2) Several candidate off-target sites were analyzed for off-target editing in human primary hepatocytes.

TTR on-target site = experiment: Off-target validation in human primary hepatocytes: editing at the on-target site; type: cell-based; details: for on-target site editing efficiency (in words): treated vs control, human primary hepatocytes
Description: as §2

human TTR gene = experiment: Editing activity in human primary hepatocytes (gRNA + ABE8.8 mRNA co-transfection, NGS of PCR amplicons); type: cell-based; details: for Human hepatocytes - Editing %, 625, rep 1 / Human hepatocytes - Editing %, 625, rep 2: 625 ng/RNA/mL; for Human hepatocytes - Editing %, 1250, rep 1 / Human hepatocytes - Editing %, 1250, rep 2: 1250 ng/RNA/mL; for Human hepatocytes - Editing %, 2500, rep 1 / Human hepatocytes - Editing %, 2500, rep 2: 2500 ng/RNA/mL; for editing activity in human primary hepatocytes (in words): ABE8.8 mRNA co-transfection
Source text: With this example, gRNA sequences were identified that permit ABE8.8 (and other ABE variants containing Streptococcus pyogenes Cas9, such as ABE7.10, or another Cas protein that can use the NGG PAM) to either: 1) disrupt the start codon, or 2) disrupt splice sites, whether donors or acceptors, via A→G editing within its editing window (roughly positions 4 to 7 in the 20-nt protospacer region of DNA). Five sequences were identified throughout the human TTR gene (Table 1). gRNAs were synthesized matching each of the protospacer sequences and otherwise conforming to the standard 100-nt Streptococcus pyogenes CRISPR gRNA sequence, with each gRNA molecule having a minimal degree of chemical modifications (specified in Table 1).
(§1) The mRNA, and corresponding amino acid, sequence of the ABE8.8 (MA004) used in shown below in Table 11. Three days after transfection, genomic DNA was harvested from the hepatocytes, and assessed for base editing with next-generation sequencing of PCR amplicons generated around the target splice site. […] See FIGS. 5A-5C, FIG. 6, and Tables 2-3.

[2] = system: cynomolgus monkey TTR gene; experiment: Editing activity in cyno primary hepatocytes (gRNA + ABE8.8 mRNA transfection, NGS); type: cell-based; details: for Cyno hepatocytes - Editing %, 156.25: 156.25 ng/RNA/mL; for Cyno hepatocytes - Editing %, 312.5: 312.5 ng/RNA/mL; for Cyno hepatocytes - Editing %, 625: 625 ng/RNA/mL; for Cyno hepatocytes - Editing %, 1250: 1250 ng/RNA/mL; for Cyno hepatocytes - Editing %, 2500: 2500 ng/RNA/mL; for Cyno hepatocytes - Editing %, 5000: 5000 ng/RNA/mL; for editing activity in cynomolgus primary hepatocytes (in words): ABE8.8 mRNA co-transfection
Source text: as §1

Row | Molecule | off-target editing at candidate off-target sites (in words) [1] | on-target site editing efficiency (in words) (TTR on-target site) | Human hepatocytes - Editing %, 625, rep 1 (human TTR gene) [%] | Human hepatocytes - Editing %, 625, rep 2 (human TTR gene) [%] | Human hepatocytes - Editing %, 1250, rep 1 (human TTR gene) [%] | Human hepatocytes - Editing %, 1250, rep 2 (human TTR gene) [%] | Human hepatocytes - Editing %, 2500, rep 1 (human TTR gene) [%] | Human hepatocytes - Editing %, 2500, rep 2 (human TTR gene) [%] | editing activity in human primary hepatocytes (in words) (human TTR gene) | Cyno hepatocytes - Editing %, 156.25 [2] [%] | Cyno hepatocytes - Editing %, 312.5 [2] [%] | Cyno hepatocytes - Editing %, 625 [2] [%] | Cyno hepatocytes - Editing %, 1250 [2] [%] | Cyno hepatocytes - Editing %, 2500 [2] [%] | Cyno hepatocytes - Editing %, 5000 [2] [%] | editing activity in cynomolgus primary hepatocytes (in words) [2] | further results
1 | GA457: Human TTR guide RNA, spacer GCCAUCCUGCCAAGAAUGAG, gRNA SEQ ID NO: 11 (nucleic acid, chemistry not given here) guide: GCCATCCTGCCAAGAATGAGGTTTTAGAGCTAGAAATAGCAAGTTAAAATAAGGCTAGTCCGTTATCAACTTGAAAAAGTGGCACCGAGTCGGTGCTTTT | little to no editing | high editing efficiency | 17.24 | 15.39 | 26.49 | 24.86 | 33.96 | 31.31 | high editing activity | – | – | – | – | – | – | – | net editing at all off-target sites ([1]; 47 candidate off-target sites, human primary hepatocytes): less than 0.40; % Editing - human primary hepatocytes, Net (TTR on-target site; On-target GCCATCCTGCCAAGAATGAG): 54.1%; % Editing - human primary hepatocytes, Treated (TTR on-target site; On-target GCCATCCTGCCAAGAATGAG): 54.21%
2 | GA458: Cyno TTR guide RNA, cynomolgus equivalent of GA457, spacer GCCAUCCUGCCAAGAACGAG, gRNA SEQ ID NO: 29 (nucleic acid) guide: mG*mC*mC*rArUrCrCrUrGrCrCrArArGrArArCrGrArGrGrUrUrUrUrArGrArGrCrUrArGrArArArUrArGrCrArArGrUrUrArArArArUrArArGrGrCrUrArGrUrCrCrGrUrUrArUrCrArArCrUrUrGrArArArArArGrUrGrGrCrArCrCrGrArGrUrCrGrGrUrGrCrU*mU*mU*mU | – | – | – | – | – | – | – | – | – | 6.06 | 10.65 | 16.07 | 22.74 | 27.25 | 35.91 | high editing activity | –
3 | GA460: Human/Cyno TTR guide RNA, spacer UAUAGGAAAACCAGUGAGUC, gRNA SEQ ID NO: 14 (nucleic acid, chemistry not given here) guide: TATAGGAAAACCAGTGAGTCGTTTTAGAGCTAGAAATAGCAAGTTAAAATAAGGCTAGTCCGTTATCAACTTGAAAAAGTGGCACCGAGTCGGTGCTTTT | little to no off-target editing | high editing efficiency | 23.77 | 22.27 | 38.33 | 35.8 | 47.61 | 47.79 | high editing activity | 1.62 | 11.22 | 18.44 | 31.71 | 38.25 | 40.16 | high editing activity | SUM Editing % - Human Primary Hepatocytes, Treat rep 1 (TTR on-target site; On-target TATAGGAAAACCAGTGAGTC): 76.4%; SUM Editing % - Human Primary Hepatocytes, Treat rep 2 (TTR on-target site; On-target TATAGGAAAACCAGTGAGTC): 74.3%
4 | GA461: Human/Cyno TTR guide RNA, spacer UACUCACCUCUGCAUGCUCA, gRNA SEQ ID NO: 15 (nucleic acid, chemistry not given here) guide: TACTCACCTCTGCATGCTCAGTTTTAGAGCTAGAAATAGCAAGTTAAAATAAGGCTAGTCCGTTATCAACTTGAAAAAGTGGCACCGAGTCGGTGCTTTT | little to no off-target editing | high editing efficiency | 21.81 | 22.31 | 32.82 | 32.38 | 40.42 | 39.43 | high editing activity | 0.07 | 7.45 | 13.16 | 19.46 | 29.8 | 37.53 | high editing activity | SUM Editing % - Human Primary Hepatocytes, Treat rep 2 (TTR on-target site; On-target TACTCACCTCTGCATGCTCA): 58.9%
5 | GA459: Human TTR guide RNA, spacer GCAACUUACCCAGAGGCAAA, gRNA SEQ ID NO: 13 (nucleic acid, chemistry not given here) guide: GCAACTTACCCAGAGGCAAAGTTTTAGAGCTAGAAATAGCAAGTTAAAATAAGGCTAGTCCGTTATCAACTTGAAAAAGTGGCACCGAGTCGGTGCTTTT | little to no off-target editing | high editing efficiency | 3.79 | 3.89 | 5.46 | 6.15 | 8.5 | 8.69 | – | – | – | – | – | – | – | – | SUM Editing % - Human Primary Hepatocytes, Treat rep 1 (TTR on-target site; On-target GCAACTTACCCAGAGGCAAA): 14.17%; SUM Editing % - Human Primary Hepatocytes, Treat rep 2 (TTR on-target site; On-target GCAACTTACCCAGAGGCAAA): 14.29%
